Response data for three molecules are collected here from PMC2661965.

Holding throughout (assay): BiFC
The target of one test is V2-Trap-80 (UniProt Q8VCD5). The note with it: HEK-293 cells, co-transfection; parent: est. 72; read off a plot.
A further test addresses p65-V2 (UniProt Q04207). Particulars: HEK-293 cells, co-transfection; parent: est. 740; read off a plot.
Another test deals with T1, V2-Trap-80, Q8VCD5.
T1 chain: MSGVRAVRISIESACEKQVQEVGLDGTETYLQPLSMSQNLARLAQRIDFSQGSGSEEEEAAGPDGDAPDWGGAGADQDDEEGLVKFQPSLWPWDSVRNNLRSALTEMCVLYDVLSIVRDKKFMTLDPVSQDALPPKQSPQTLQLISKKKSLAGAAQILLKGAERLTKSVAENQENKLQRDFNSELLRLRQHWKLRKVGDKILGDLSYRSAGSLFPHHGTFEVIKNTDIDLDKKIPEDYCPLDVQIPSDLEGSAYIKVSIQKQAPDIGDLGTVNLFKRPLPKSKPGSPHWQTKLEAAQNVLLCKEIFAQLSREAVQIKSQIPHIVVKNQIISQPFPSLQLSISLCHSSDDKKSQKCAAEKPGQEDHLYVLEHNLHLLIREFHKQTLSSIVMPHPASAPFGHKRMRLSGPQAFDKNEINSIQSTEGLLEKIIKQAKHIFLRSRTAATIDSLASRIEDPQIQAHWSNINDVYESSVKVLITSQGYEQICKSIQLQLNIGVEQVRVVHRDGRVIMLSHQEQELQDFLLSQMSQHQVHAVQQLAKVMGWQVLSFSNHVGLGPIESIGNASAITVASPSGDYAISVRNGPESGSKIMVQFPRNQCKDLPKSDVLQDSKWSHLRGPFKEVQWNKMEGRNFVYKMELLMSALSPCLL
The note with it: chain shown with the change; HEK-293 cells, co-transfection; parent: est. 72; read off a plot.

The target in a further test is T2, p65-V2, Q04207.
T2 chain: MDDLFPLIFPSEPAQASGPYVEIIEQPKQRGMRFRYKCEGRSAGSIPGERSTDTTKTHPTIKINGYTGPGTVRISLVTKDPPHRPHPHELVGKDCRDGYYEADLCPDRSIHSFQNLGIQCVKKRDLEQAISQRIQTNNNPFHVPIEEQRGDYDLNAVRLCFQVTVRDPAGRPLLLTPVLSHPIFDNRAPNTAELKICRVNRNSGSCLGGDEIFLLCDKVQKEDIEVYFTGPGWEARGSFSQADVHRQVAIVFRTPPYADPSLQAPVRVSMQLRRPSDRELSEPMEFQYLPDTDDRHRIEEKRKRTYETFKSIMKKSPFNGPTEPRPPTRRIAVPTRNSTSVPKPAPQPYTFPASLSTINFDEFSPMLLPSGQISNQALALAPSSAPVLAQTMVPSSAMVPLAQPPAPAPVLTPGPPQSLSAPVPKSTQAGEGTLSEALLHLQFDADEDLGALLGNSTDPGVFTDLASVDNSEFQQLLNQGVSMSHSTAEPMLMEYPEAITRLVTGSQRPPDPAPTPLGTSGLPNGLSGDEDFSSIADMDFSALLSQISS
The note with it: chain shown with the change; HEK-293 cells, co-transfection; parent: est. 740; read off a plot.

With “p65ΔTA2 fused to Venus fragment 1 (from UniProt Q04207) TA1 mut535-541”, the response was 38 % wt p65 in the test with V2-Trap-80 and 640 % wt p65 with p65-V2.

As for “p65ΔTA2 fused to Venus fragment 1 (from UniProt Q04207) TA1 mut528-534”, the response with V2-Trap-80 was determined as 40 % wt p65; with p65-V2, 550 % wt p65.

B1: p65ΔTA2 fused to Venus fragment 1, Q04207 D539A; F540A (protein)
chain: MDDLFPLIFPSEPAQASGPYVEIIEQPKQRGMRFRYKCEGRSAGSIPGERSTDTTKTHPTIKINGYTGPGTVRISLVTKDPPHRPHPHELVGKDCRDGYYEADLCPDRSIHSFQNLGIQCVKKRDLEQAISQRIQTNNNPFHVPIEEQRGDYDLNAVRLCFQVTVRDPAGRPLLLTPVLSHPIFDNRAPNTAELKICRVNRNSGSCLGGDEIFLLCDKVQKEDIEVYFTGPGWEARGSFSQADVHRQVAIVFRTPPYADPSLQAPVRVSMQLRRPSDRELSEPMEFQYLPDTDDRHRIEEKRKRTYETFKSIMKKSPFNGPTEPRPPTRRIAVPTRNSTSVPKPAPQPYTFPASLSTINFDEFSPMLLPSGQISNQALALAPSSAPVLAQTMVPSSAMVPLAQPPAPAPVLTPGPPQSLSAPVPKSTQAGEGTLSEALLHQLLNQGVSMSHSTAEPMLMEYPEAITRLVTGSQRPPDPAPTPLGTSGLPNGLSGDEDFSSIADMAASALLSQISS
Take B1: the response amounted to 35 % wt p65 with V2-Trap-80, Q8VCD5 and 600 % wt p65 with p65-V2, Q04207.
